Experimental data published in the Human Domainome abundance scans (Beltran et al. 2025).
± gives the uncertainty stated by the source.

B1: E3 ubiquitin-protein ligase Midline-1, residues 172 to 214; numbered along this chain, O15344 (parent)
chain: GLMCLEHEDEKVNMYCVTDDQLICALCKLVGRHRDHQVAALSE

Variants of: B1
Assay: abundance fitness (aPCA) (normalised: wild type 0, dead -1); higher = more abundant; growth selection in yeast, the domain comes from the species named
Settings: Homo sapiens

Variant	abundance fitness
WLMCLEHEDEKVNMYCVTDDQLICALCKLVGRHRDHQVAALSE	-0.611 ± 0.2
TLMCLEHEDEKVNMYCVTDDQLICALCKLVGRHRDHQVAALSE	-0.235 ± 0.27
ALMCLEHEDEKVNMYCVTDDQLICALCKLVGRHRDHQVAALSE	-0.361 ± 0.087
VLMCLEHEDEKVNMYCVTDDQLICALCKLVGRHRDHQVAALSE	-0.211 ± 0.072
YLMCLEHEDEKVNMYCVTDDQLICALCKLVGRHRDHQVAALSE	-0.192 ± 0.15
SLMCLEHEDEKVNMYCVTDDQLICALCKLVGRHRDHQVAALSE	-0.184 ± 0.11
KLMCLEHEDEKVNMYCVTDDQLICALCKLVGRHRDHQVAALSE	0.061 ± 0.29
PLMCLEHEDEKVNMYCVTDDQLICALCKLVGRHRDHQVAALSE	-0.112 ± 0.23
RLMCLEHEDEKVNMYCVTDDQLICALCKLVGRHRDHQVAALSE	-0.081 ± 0.078
ELMCLEHEDEKVNMYCVTDDQLICALCKLVGRHRDHQVAALSE	0.134 ± 0.087
DLMCLEHEDEKVNMYCVTDDQLICALCKLVGRHRDHQVAALSE	0.306 ± 0.091
GLMCLYHEDEKVNMYCVTDDQLICALCKLVGRHRDHQVAALSE	-0.276 ± 0.085
GLMCLWHEDEKVNMYCVTDDQLICALCKLVGRHRDHQVAALSE	-0.374 ± 0.083
GLMCLKHEDEKVNMYCVTDDQLICALCKLVGRHRDHQVAALSE	-0.206 ± 0.066
GLMCLCHEDEKVNMYCVTDDQLICALCKLVGRHRDHQVAALSE	-0.447 ± 0.17
GLMCLPHEDEKVNMYCVTDDQLICALCKLVGRHRDHQVAALSE	-0.843 ± 0.17
GLMCLHHEDEKVNMYCVTDDQLICALCKLVGRHRDHQVAALSE	0.063 ± 0.21
GLMCLAHEDEKVNMYCVTDDQLICALCKLVGRHRDHQVAALSE	-0.085 ± 0.075
GLMCLFHEDEKVNMYCVTDDQLICALCKLVGRHRDHQVAALSE	0.023 ± 0.11
GLMCLIHEDEKVNMYCVTDDQLICALCKLVGRHRDHQVAALSE	0.126 ± 0.095

Variant	abundance fitness
GLMCLLHEDEKVNMYCVTDDQLICALCKLVGRHRDHQVAALSE	-0.14 ± 0.063
GLMCLVHEDEKVNMYCVTDDQLICALCKLVGRHRDHQVAALSE	-0.183 ± 0.059
GLMCLSHEDEKVNMYCVTDDQLICALCKLVGRHRDHQVAALSE	0.039 ± 0.064
GLMCLNHEDEKVNMYCVTDDQLICALCKLVGRHRDHQVAALSE	-0.226 ± 0.18
GLMCLRHEDEKVNMYCVTDDQLICALCKLVGRHRDHQVAALSE	-0.297 ± 0.054
GLMCLGHEDEKVNMYCVTDDQLICALCKLVGRHRDHQVAALSE	-0.438 ± 0.055
GLMCLQHEDEKVNMYCVTDDQLICALCKLVGRHRDHQVAALSE	-0.036 ± 0.09
GLMCLTHEDEKVNMYCVTDDQLICALCKLVGRHRDHQVAALSE	0.001 ± 0.15
GLMCLDHEDEKVNMYCVTDDQLICALCKLVGRHRDHQVAALSE	-0.132 ± 0.19
GEMCLEHEDEKVNMYCVTDDQLICALCKLVGRHRDHQVAALSE	0.611 ± 0.056
GDMCLEHEDEKVNMYCVTDDQLICALCKLVGRHRDHQVAALSE	0.674 ± 0.13
GYMCLEHEDEKVNMYCVTDDQLICALCKLVGRHRDHQVAALSE	0.109 ± 0.17
GIMCLEHEDEKVNMYCVTDDQLICALCKLVGRHRDHQVAALSE	0.257 ± 0.12
GHMCLEHEDEKVNMYCVTDDQLICALCKLVGRHRDHQVAALSE	0.147 ± 0.085
GQMCLEHEDEKVNMYCVTDDQLICALCKLVGRHRDHQVAALSE	0.063 ± 0.11
GTMCLEHEDEKVNMYCVTDDQLICALCKLVGRHRDHQVAALSE	0.51 ± 0.069
GKMCLEHEDEKVNMYCVTDDQLICALCKLVGRHRDHQVAALSE	0.795 ± 0.1
GSMCLEHEDEKVNMYCVTDDQLICALCKLVGRHRDHQVAALSE	0.279 ± 0.066
GMMCLEHEDEKVNMYCVTDDQLICALCKLVGRHRDHQVAALSE	0.544 ± 0.066
GVMCLEHEDEKVNMYCVTDDQLICALCKLVGRHRDHQVAALSE	0.233 ± 0.061

Variant	abundance fitness
GAMCLEHEDEKVNMYCVTDDQLICALCKLVGRHRDHQVAALSE	0.483 ± 0.058
GCMCLEHEDEKVNMYCVTDDQLICALCKLVGRHRDHQVAALSE	0.19 ± 0.092
GFMCLEHEDEKVNMYCVTDDQLICALCKLVGRHRDHQVAALSE	-0.298 ± 0.33
GLMCLEHPDEKVNMYCVTDDQLICALCKLVGRHRDHQVAALSE	0.186 ± 0.081
GLMCLEHCDEKVNMYCVTDDQLICALCKLVGRHRDHQVAALSE	0.16 ± 0.066
GLMCLEHIDEKVNMYCVTDDQLICALCKLVGRHRDHQVAALSE	-0.139 ± 0.16
GLMCLEHQDEKVNMYCVTDDQLICALCKLVGRHRDHQVAALSE	0.051 ± 0.074
GLMCLEHLDEKVNMYCVTDDQLICALCKLVGRHRDHQVAALSE	0.108 ± 0.069
GLMCLEHADEKVNMYCVTDDQLICALCKLVGRHRDHQVAALSE	0.179 ± 0.054
GLMCLEHNDEKVNMYCVTDDQLICALCKLVGRHRDHQVAALSE	-0.137 ± 0.11
GLMCLEHDDEKVNMYCVTDDQLICALCKLVGRHRDHQVAALSE	-0.165 ± 0.09
GLMCLEHKDEKVNMYCVTDDQLICALCKLVGRHRDHQVAALSE	0.221 ± 0.074
GLMCLEHHDEKVNMYCVTDDQLICALCKLVGRHRDHQVAALSE	0.056 ± 0.13
GLMCLEHFDEKVNMYCVTDDQLICALCKLVGRHRDHQVAALSE	-0.144 ± 0.17
GLMCLEHRDEKVNMYCVTDDQLICALCKLVGRHRDHQVAALSE	0.116 ± 0.045
GLPCLEHEDEKVNMYCVTDDQLICALCKLVGRHRDHQVAALSE	-0.309 ± 0.093
GLHCLEHEDEKVNMYCVTDDQLICALCKLVGRHRDHQVAALSE	0.14 ± 0.1
GLACLEHEDEKVNMYCVTDDQLICALCKLVGRHRDHQVAALSE	-0.022 ± 0.12
GLDCLEHEDEKVNMYCVTDDQLICALCKLVGRHRDHQVAALSE	0.018 ± 0.21
